Here are results for two molecules from US20170267738A1 (IMMATICS BIOTECHNOLOGIES, published 2017).

The test has as its target MHC/MAG-003 complex on target cells (human). Put plainly: cell-based or functional assay.

B1: TCR R20P1H7 (TCR, V domains shown)
V domain 1: EDQVTQSPEALRLQEGESSSLNCSYTVSGLRGLFWYRQDPGKGPEFLFTLYSAGEEKEKERLKATLTKKESFLHITAPKPEDSATYLCAVQGENSGYSTLTFGKGTMLLVSP
V domain 2: EAQVTQNPRYLITVTGKKLTVTCSQNMNHEYMSWYRQDPGLGLRQIYYSMNVEVTDKGDVPEGYKVSRKEKRNFPLILESPSPNQTSLYFCASSLGPGLAAYNEQFFGPGTRLTVLE
In the case of B1, the “EC50 (target peptide titration, IFN-γ release)” value is approximately 10 nM.

B2: TCR R10P2G12 (TCR, V domains shown)
V domain 1: AQKVTQAQTEISVVEKEDVTLDCVYETRDTTYYLFWYKQPPSGELVFLIRRNSFDEQNEISGRYSWNFQKSTSSFNFTITASQVVDSAVYFCALSEGNSGNTPLVFGKGTRLSVIA
V domain 2: DVKVTQSSRYLVKRTGEKVFLECVQDMDHENMFWYRQDPGLGLRLIYFSYDVKMKEKGDIPEGYSVSREKKERFSLILESASTNQTSMYLCASSLSSGSHQETQYFGPGTRLLVLE
For B2, the “EC50 (target peptide titration, IFN-γ release)” value is approximately 10 nM.
